From patent US20150079112A1 (SAMSUNG ELECTRONICS, published 2015)

Assays:
Experiment in all cases: ELISA, coated antibody 1000 nM, 250 ng FLAG-tagged mutant Ang2, anti-FLAG-HRP, OD450
[1] = target: T1, mutant Ang2 protein, F469 substituted with alanine, FLAG-tagged at its N-terminal (human, UniProt O15123 19-496, limits assumed)
T1 sequence: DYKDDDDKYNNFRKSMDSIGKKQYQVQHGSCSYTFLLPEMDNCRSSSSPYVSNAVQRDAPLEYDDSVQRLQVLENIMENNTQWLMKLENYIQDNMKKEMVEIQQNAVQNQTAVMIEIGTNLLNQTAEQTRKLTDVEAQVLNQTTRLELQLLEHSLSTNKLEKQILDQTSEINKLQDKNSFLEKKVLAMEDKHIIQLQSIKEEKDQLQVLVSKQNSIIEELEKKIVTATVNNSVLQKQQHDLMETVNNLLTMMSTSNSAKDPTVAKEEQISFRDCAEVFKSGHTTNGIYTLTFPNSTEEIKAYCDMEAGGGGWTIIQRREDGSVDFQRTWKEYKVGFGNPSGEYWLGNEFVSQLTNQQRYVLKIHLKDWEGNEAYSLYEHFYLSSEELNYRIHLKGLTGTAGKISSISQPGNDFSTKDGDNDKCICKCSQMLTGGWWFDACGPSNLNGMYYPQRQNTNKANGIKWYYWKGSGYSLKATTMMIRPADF
Description: (§1) Each well of a 96-well MaxiSorp™ flat-bottom plate (Nunc) was coated with 50 ul (microliter) of 1000 nM antibody. Then, the plate was washed five times with 0.05% (v/v) Tween-20-containing PBS (PBST) and blocked with 1% (v/v) BSA-containing PBS at a room temperature for 2 hours. 250 ng of each mutant Ang2 protein obtained by substituting S417, Q418, P419, N421, I434, D448, A449, P452, Y460, N467, K468, or F469 residue of Ang2 protein tagged with a FLAG sequence ([…], Sigma) at its N-terminal with alanine was added to each well of the plate, which was then allowed to react at a room temperature for 2 hours.
(§2) The plate was washed five times with 0.05% (v/v) Tween-20 containing PBS, reacted with an anti-FLAG antibody (SIGMA) conjugated with HRP which was diluted in 1% (v/v) BSA-containing PBS at a ratio of 1:5,000 (v/v) at a room temperature for 1 hour, and washed five times with 0.1% (v/v) Tween-20-containing PBS.
(§3) Finally, 50 ul of TMB substrates (Cell signaling) was added to each well of the plate to induce color development at a room temperature for 3 min. and the reaction was ceased by the addition of 50 ul of Stop solution (Cell signaling) and then, OD450 values were measured on a plate reader (Molecular Devices). By comparing binding affinities with mutated Ang2 to those of unmutated Ang2, each epitope of Ang2 antibodies was identified. The thus obtained measurement results of the binding affinities (%) with mutant Ang2 against the binding affinity with the native Ang2 are shown in the following Table 8.

[2] = target: T2, mutant Ang2 protein, K468 substituted with alanine, FLAG-tagged at its N-terminal (human, UniProt O15123 19-496, limits assumed)
T2 sequence: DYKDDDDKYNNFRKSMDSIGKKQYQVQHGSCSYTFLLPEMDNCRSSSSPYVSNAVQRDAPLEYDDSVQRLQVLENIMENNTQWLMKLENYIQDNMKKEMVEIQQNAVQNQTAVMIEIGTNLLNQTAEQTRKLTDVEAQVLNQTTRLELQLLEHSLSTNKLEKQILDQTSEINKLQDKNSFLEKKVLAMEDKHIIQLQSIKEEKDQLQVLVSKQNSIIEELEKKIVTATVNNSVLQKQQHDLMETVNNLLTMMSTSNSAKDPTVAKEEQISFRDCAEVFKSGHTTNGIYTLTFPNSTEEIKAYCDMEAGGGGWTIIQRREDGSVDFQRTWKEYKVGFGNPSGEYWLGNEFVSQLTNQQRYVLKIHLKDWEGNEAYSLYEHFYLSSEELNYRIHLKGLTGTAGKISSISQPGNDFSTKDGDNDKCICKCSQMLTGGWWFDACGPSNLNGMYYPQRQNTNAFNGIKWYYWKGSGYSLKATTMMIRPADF
Description: as §1, §2, §3

[3] = target: T3, mutant Ang2 protein, P419 substituted with alanine, FLAG-tagged at its N-terminal (human, UniProt O15123 19-496, limits assumed)
T3 sequence: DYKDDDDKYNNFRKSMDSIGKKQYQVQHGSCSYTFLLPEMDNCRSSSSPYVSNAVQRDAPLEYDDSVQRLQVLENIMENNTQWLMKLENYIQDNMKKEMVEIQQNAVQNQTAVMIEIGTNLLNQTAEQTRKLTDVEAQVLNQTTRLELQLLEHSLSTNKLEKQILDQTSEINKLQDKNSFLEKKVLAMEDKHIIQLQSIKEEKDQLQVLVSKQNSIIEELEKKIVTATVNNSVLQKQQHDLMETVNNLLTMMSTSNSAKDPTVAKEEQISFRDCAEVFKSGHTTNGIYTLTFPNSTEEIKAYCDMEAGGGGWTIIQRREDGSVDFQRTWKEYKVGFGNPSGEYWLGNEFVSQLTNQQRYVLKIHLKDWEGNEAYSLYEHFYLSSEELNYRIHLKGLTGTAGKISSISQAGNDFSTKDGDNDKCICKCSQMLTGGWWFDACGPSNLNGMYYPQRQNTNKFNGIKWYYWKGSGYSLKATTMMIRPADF
Description: as §1, §2, §3

[4] = target: T4, mutant Ang2 protein, N467 substituted with alanine, FLAG-tagged at its N-terminal (human, UniProt O15123 19-496, limits assumed)
T4 sequence: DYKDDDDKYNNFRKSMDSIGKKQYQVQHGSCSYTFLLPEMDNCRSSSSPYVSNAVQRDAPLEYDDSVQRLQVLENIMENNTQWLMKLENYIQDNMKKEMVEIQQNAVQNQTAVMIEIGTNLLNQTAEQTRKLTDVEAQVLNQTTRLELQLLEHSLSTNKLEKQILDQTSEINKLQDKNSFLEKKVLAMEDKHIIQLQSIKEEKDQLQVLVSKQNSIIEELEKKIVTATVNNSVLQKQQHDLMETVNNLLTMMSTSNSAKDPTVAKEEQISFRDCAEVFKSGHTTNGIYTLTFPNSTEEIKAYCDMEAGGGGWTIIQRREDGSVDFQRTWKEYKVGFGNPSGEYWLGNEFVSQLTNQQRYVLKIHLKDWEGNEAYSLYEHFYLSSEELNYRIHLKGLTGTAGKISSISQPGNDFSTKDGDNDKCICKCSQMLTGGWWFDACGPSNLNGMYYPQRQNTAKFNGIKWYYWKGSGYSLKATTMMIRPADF
Description: as §1, §2, §3

B1: SAIT-ANG2-AB-m10D6 (antibody, V domains shown)
VH: DVQLQESGPGLVKPSQSLSLTCTVTGYSITSDYAWNWIRQFPGNKLEWMGYINYSGNTDYNPSLKSRSSITRDTSKNQFFLQLNSVTTGDTATYYCARGNFEGAMDYWGQGTSVTVSS
VL: SIVMTQTPKFLLVSAGDRVTITCKASQSVSNDVAWYQQKPGQSPKLLIYYASNRYPGVPDRFTGSGYGTDFTFTISTVQAEDLAVYFCQQDYSSPWTFGGGTKLEIK
notes: also called antibody 10D6; anti-Ang2 antibody (10D6)
binding affinity (%) with mutant Ang2 against the binding affinity with the native Ang2 [1]: 109%
binding affinity (%) with mutant Ang2 against the binding affinity with the native Ang2 [2]: 110%
binding affinity (%) with mutant Ang2 against the binding affinity with the native Ang2 [3]: 41.1%
binding affinity (%) with mutant Ang2 against the binding affinity with the native Ang2 [4]: 107%
